Measurements reported in publication PMC4133393.

Biological target: (his)6CfaB, mature CfaB (residues 24–170) with N-terminal hexahistidine tag (enterotoxigenic E. coli (ETEC)) (UniProt E3PPC4)
Experiment: pull-down

Chain of UniProt E3PPC4 (E3PPC4 24-170): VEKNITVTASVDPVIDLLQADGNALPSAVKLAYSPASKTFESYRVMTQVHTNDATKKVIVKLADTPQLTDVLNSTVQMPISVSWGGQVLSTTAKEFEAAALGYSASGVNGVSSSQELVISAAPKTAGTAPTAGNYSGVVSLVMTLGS

| Substance | CfaA/CfaB ratio |
| --- | --- |
| CfaA (20–238), wild type, untagged (pETDuet-1-cfaA) (natural protein) | 0.66 |
| CfaA (20–238) K9A (natural protein) | 0.64 |
